The source of these data is the DeepSol protein solubility set.

This data set in a line: soluble on expression in E. coli; label from the status in PepcDB or PDB records.
For the sequence “NKDWSYRIGFNLYDSQSEITKYNNETNLLGDKIYRKGMKMGEIWGYVTDRFYTEDDFNADGTLKPGIPIPKGAGKVFPGDVLYKNFDDDTETIWSGEGTADNPGDQRIIGNSTPRFHYGITAGISWKGLDLSIFLRGVGKRDYWRTDQIAWPTGGWGSLFKETLNFWTPTNTNAYYPRVYSNDGVNTSYNHWKQSKYLANASYLKLQNITLSYTLPKVWSQRLYFDDVKVFFSGENLYTWDHLPEGLETDMLSKGAWEYPFMRKFSFGINVTF”, the “soluble on expression in E. coli” value is “not soluble”.
Consider “MGSDKIHHHHHHMPQITIIVPVYNAERTLERCVRSIQAQTVVNWELLLIDDGSEDYSSKLCDEYAIQDSRIRVFHQVNGGASSARNVGLEYTKGEWVVFCDSDDWVDSNWLELFKNQIDNGTELIVQGFIPHGNLWQSRTGINFHGNVKTGILKLQEENILGFMCTKMYKREIIEQCGLRFDTELVLREDELFMLQYAEYISTIQCMEEGAYHYDMPDFSTKYGNIDLFNMFLKIYVVLKRIFSGEDNLLLQNYENDLTQSLFHSFVMRHDDRCKKLENYRKEVGKRVLGVKSLSQFSKYILAYVPSFQVAYLLLEAKAKIVKSMQ”, for which the “soluble on expression in E. coli” value was “not soluble”.
With “MAHHHHHHMLSIGMTAMDTEGDVTQMELSALLVHIERCERLLRHPTLLSRLPDEGETIRSRHALYVAERSRREVGGDASSSRKENDAVEGSVRQVERQISQMTLSTEEKSEKTATMPMECHASLNTDGWTVGAGGKAVESYEDVARAVGEKHRHSRIPVEMIVRQTFGGSLCEAEIQRMLCDVPPNFFLTHDETISMQRKLLSEERLEALTRLRNQRHAEL”, the “soluble on expression in E. coli” value is “not soluble”.
As to “MGHHHHHHSHMVKPLSPLNIQKLARHHGPRLWSQLLGRLRQVGHVGSGVRDQPGQHGETPISTKNTKISQASWPTPVVPATREAEVEGSLKSWGQGCSELLSHHCTPAWATVRPCLKKKRKMKQKLTCLLPPN”, the “soluble on expression in E. coli” value is reported as “not soluble”.
Turning to “PHFRGPVRKSTSIDTGPTESPASLKRVASPAAKPAIPGEEFIAMYTYESSEQGDLTFQQGDVIVVTKKDGDWWTGTGGDKSGVFPSNYVRLKDSEGSGTAGKTGSLGKKPEIAQVIASYAATGPEQLTLAPGQLILIRKKNPGGWWEGELQARGKKRQIGWFPANYVKLLSPGTSKITPTELPKTAVQPAVCQVIGMYDYTAQNDDELAFSKGQIINVLNKEDPDWWKGEVSGQVGLFPSNYVKLTTDMDPSQQWCSDLHLLDMLTPTERKRQGYIHELIVTEENYVNDLQLVTEIFQKPLTESELLTEKEVAMIFVNWKELIMCNIKLLKALRVRKKMSGEKMPVKMIGDILSAQLPHMQPYIRFCSCQLNGAALIQQKTDEAPDFKEFVKRLAMDPRCKGMPLSSFILKPMQRVTRYPLIIKNILENTPENHPDHSHLKHALEKAEELCSQVNEGVREKENSDRLEWIQAHVQCEGLSEQLVFNSVTNCLGPRKFLHSGKLYKAKSNKELYGFLFNDFLLLTQITKPLGSSGTDKVFSPKSNLQYKMYKTPIFLNEVLVKLPTDPSGDEPIFHISHIDRVYTLRAESINERTAWVQKIKAASELYIETEKKKREKAYLVRSQRATGIGRLMVNVVEGIELKPCRSHGKSNPYCEVTMGSQCHITKTIQDTLNPKWNSNCQFFIRDLEQEVLCITVFERDQLSADDFLGRTEIRVADIKKDQGSKGPVTKCLLLHEVPTGEIVVRLDLQLFDEP”, the “soluble on expression in E. coli” value is “soluble”.
For “MAHHHHHHMADVSADSDAQVELERLNDVIDKYTCQVEHIDNLLQELEEENNSDSVSRQIAEYQSALESHPENIPAEDALEVITRLENTLKIVQRRNHLLEKENGTQNRLLEERSNVLLNATKTFDHIVDVTGWHDKFLFDAEDLRSKVADIREMSNIEAVVQKELRVAQGIIKKKEAALRQLEELVEQGKEQEAVLNNVYNDIRVKERDCSEVEMQLVRLRKSVAKTDEALAVFDLHNQNASLAYMESDRDYLRDSVAEMKSTTRRQDNVIKAQLTRQQQLQTRLDVIMKSLREMKLDKKYERNIPKSALVPSASREEPEDVSKILPESECIPVPTYRLLHKNNEMLRVIVMRKNMLVLEKNAVIEALEAGLAKYGSALITTYKEQQDLRQNKDMELIELMDDLQQQHSNYLEKLEELRLQNAALKKKMYRSTRQHAPLKGTRPMR”, the “soluble on expression in E. coli” value was “not soluble”.
The same measure for “MEIFMNYKKSNGLNYILISDTALFQGCSPVETEKLLSGMQFFTKAYKKGVPVYHAGTPVSDIGIVLHGVVQIENNDLWGNKNIISLAQAGEVFAEAYACIPGEPMMVDVIALEDCEILFLNVPRLFQLASSGKGEYSVLIRNLTMISARKNLLLSRRILHTSSKKIRGRLLSYLSHQAELQGSRYIDIPLNRQQLADYLSLDRSALSKELAKMKQDGLLDYHKNSFVLKNV”: “not soluble”; for “MLDFAAIDFETANAERTSVCSVGIIVVRGGQIVHRYYSLIRPEPDYYNYHNTRVHGLTAADTESARIFPDVWAEVEPLIAGLPLVAHNKPFDEGCLKAVFRMYRMDYPDYPFFCTLQAARRQLRHLSDHRLPTVAQCCGYTLAQHHQALADAEACAAIALKLL”: “not soluble”; for “MCIHTIPYYSAKRRRIMDNQFFKNIEKKTGVKMQDVMNLAGSLQNANFKDENTVRSVINRVAQMANRRVPKELEDKIVESITSGKEKLDFGTISKMMDNKLEHHHHHH”: “not soluble”.
“MSRYLITFDMDTNCLKDNYHGNNYTNAYSDIKTILARHGFENIQGSVYLGREGISEAHGTIAIQELTARFDWFYSCISNIKFYRLESDLNAQFIADGVYQAKQAFLQRVEQLRISLTEAGLSDEQINQVLEKQKFELESPNLKLN”: the “soluble on expression in E. coli” value is given as “not soluble”.
As for “MKKTAIAIAVALAGFATVAQAEVKLHESGAGLVKPGASVEISCKATGYTFSSFWIEWVKQRPGHGLEWIGEILPGRGRTNYNEKFKGKATFTAETSSNTAYMQLSSLTSEDSAVYYCATGNTMVNMPYWGQGTTVTVSSASTKGPSVFPLAPSSKSTSGGTAALGCLVKDYFPEPVTVSWNSGALTSGVHTFPAVLQSSGLYSLSSVVTVPSSSLGTQTYICNVNHKPSNTKVDKKVEPKSCSAWSHPQFEK”, the “soluble on expression in E. coli” value is recorded as “soluble”.
As to “MVRQPAVAGQFYTDDPRRLREELGHLIRPVPAPRRVTGVIAPHAGYMYSGAIAGAVYGSIVIPRTVVILGPNHHGLGAAASLYPDGTWLSPLGEVPIEQRLSSLVLEHVPQAEPDVIAHRFEHSLEVQVPFLRYLNSDVAIVPMCLGGGGYGWCRQVGEGLARAIAAYGEEVLIVASSDMTHYESAESARLKDEAALSCVLALDAEGLLKVCRQRGITMCGVIPSTVMLVAARELGASRAELIRYGTSGDVTGDNRQVVAYAAVAVYLEHHHHHH”, the “soluble on expression in E. coli” value is on record as “not soluble”.
The same measure for “MHRRAVVLFTAALLLGLGLPRASAESRQDEPTSLITSPGYTRTTASPGPGLTLFTYQNPDDDRVVHVLRADPDAAPLTVESTAGTSGARAEKTTDMLKSTTGYAPRWPHAGLNGGFWYRQGDTLAFMGISVQEGVVQSASCSAAGRGEAALIQHGRPYIGDFTTHLAVTAPGAAPMPLDGVNRHPGWMTGCAQGSGATADRSIGGGVFADASEIIAFTSRFKAPTPVPDADARFTEDDDPGAEAVVAADGTVLSLNPNGRGGVTVPTGGRVLQGTGTGADWLRAHATPGTDLAFEERLHDERFGDDIPLDSSVDVVNGHYPLVHNAQYAYTGQNTAVDPRSAIAVDGPGRTLFVTATGKSGRNGVTLDEFARILLDLGAVDGLNMDGGGSTTLVVEQAVVNRPSDSTGERPVADSLYIGHGGYGHYADLEHHHHHH”: “not soluble”.
“MGSDKIHHHHHHMGVVETAEWLHLYYGRPEKLCEKFTKYIPLPKERLYRFLISKGMYRPVMRGEREIKELEKKEVWKELRAEYEKLKDWLKGPDVPVFILLSDSYNRTVQEEYNGRAGLSMRHVIFLFVCGRNSVEELKVLLAHEYHHICRLHQIETKETEYTLLDTMIMEGLAEQAVTERYSEKNNAPWTTYLSKEEAIYYWKNVVHERISIKRGTREHDILLNGFHSYPKMLGYALGFHIVKDCVTLEGEDTLSLLPIDAKEILNKANTFHI”: the “soluble on expression in E. coli” value is listed as “not soluble”.
Take “MSLSAPLGENMSNLTSEERHARLRQIYIEKERRQRLGSRMGLSPLEEEANDRLMAIRQVDEEFYNLWRNYHSQPPPFLKHLNIIDTNLYAALKSMPKGGLLHVHDSGMLRMEILIDLIYRDNLWVCVNLEQDFEDFRFSRYFPHIPPAEDYQCNWMLMSNFFQLESRLEFENRLRKILTVRPEGYKSSSELVRHLRRHQRIIHGLITFRPIWSEFIFTMLSDFYADGVHYVELRSSLPNMYDLDGNNFTILETAEALVSVSNIFKNSFKDFIGIKLIYAPSRNLNDSRMDEYLENARLLKLHFPNFFAGFDLNTFGDECNLPLLENVTQLLRIGKNIDFYFHAGESRCPDSSRPDANLLEALLLQSKRIGNAVNLPFHPEIMKVMKRLSIAVEICPLSNHYLQYFNDFRQHPAAYLIAAGFPIVIGSDYPCFWNSAPLTDDFYVAFVGVISGWGDLRLLKQFALNSFLFSSLSETEKNMAVSKWQCSWNRWVRNLVNSSGYEGHHHHHH”: the “soluble on expression in E. coli” value was “not soluble”.
Then “MTLISPELKTQGFYASSYKGTDLIGLTKHYFREKHMKQLMLTLGIVNTYDKIKVLDAHYRAIARAAPICHAFGFHLALYDFPFKMTAEELVAFVMEKTTIGESGSYLKILYEKNHLSVSDLPKKGFPSQFGETVITTSKPDPKRKVMPVKIAEEALHNRSFLFLVGLGHKGLPKELFERGKYHLDITSKGLSLETCTAIGAVPAHLAGLMENLRCKK”, with “not soluble”; and “MNTRIKPVRSFLFVPGNKESMLDKAAQAGADALILDLEDSVPSPEKTAARELVAKKIPELIAQNQRIWVRINRTAHIYDLDDILAVAPAGIEGIYISKPGGPEDVYMASCMIAEAEARANLPLGSIGLIPLLETARSMQLCYDIAQMPRVAGIVGATARNADMGRALKFVWTAEGRETEYLKSRVVMAARAAGKQAIGGLWQQIKDLDGLAKSSAFDRQLGMSGELVLHPMQVETINRTYTPTAEDVAYYQGMIEALDAAQAQGRASVMYEGEHIDIAHVKTAHEVIALAQSFGNLEHHHHHH”, with “soluble”.
Turning to “MGHHHHHHSHEEEGSPGGREDGFTAEHLAAEAMAADMDPWLVFDARTTPATELDAWLAKYPPSQVTRYGDPGSPNSEPVGWIAVYGQGYSPNSGDVQGLQAAWEALQTSGRPITPGTLRQLAITHHVLSGKWLMHLAPGFKLDHAWAGIARAVVEGRLQVAKVSPRAKEGGRQVICVYTDDFTDRLGVLEADSAIRAAGIKCLLTYKPDVYTYLGIYRANRWHLCPTLYESRFQLGGSARGSRVLDRANNVELT”, the “soluble on expression in E. coli” value is given as “soluble”.
The same measure for “STSPTATKYDVFLSFRGVDTRRNFISFLYKEFVRRKIRTFKDDKELENGRRISPELKRAIEESKFAVVVVSVNYAASPWCLDELVKIMDFENKGSITVMPIFYGVDPCHLRRQIGDVAEQFKKHEAREEDHEKVASWRRALTSLASISGDCSSKCEDEAKLVDEIADKISKNLMTVTTISNGKNLVGIDTHMKALNKKLDLNSNKSLRVVGIWARGYNGRSALAKYVYQDICHHFDSHCFLGSVKRISQGRHLSHLHEEFLIRIQGSKHNLKDQKVLLVADDVYKLEQLDALAEDFNGFGPGSVVIITTQDKHLFVSAGIKLVYEVELLKFQKVCELFRQFAFKKRDISAAVKLVYYRATNWLGCLSGRSG”: “soluble”; for “QRSHVASCSHSLSVIQFNLFYENSDINQFINYLLRHPADLVVMQELTPRVGSLLHMLDDVYPHYHGGQRDVGYPSNLMILSRHPITEVSVYRAPNGQEVIRAVWLPKGQAPITLFAAHPPSPRTSELWHQRNALVRTIETLTALYPEPEVLVVGDFNLSSVSPRFSTLFPSFQTAPVTSWPTNIKGINVPEPMMIGIDHLWLKSEQGQRIICSRESSALPQGSDHRMVTTQIGVHIP”: “not soluble”.
